Laboratory results from publication PMC3302947.

Target: Vif(155–176) (PPLP peptide) (HIV-1)
Assay: AUC

Vif(155–176) (PPLP peptide)
stoichiometry N: 2
